Measured values reported in publication PMC10296094 (2023).

What was measured:
[1] = biological target: fluorescein-labelled CaMKII peptide (Homo sapiens (Human), UniProt Q9UQM7, fluorescein attached to the non-native cysteine added to the N-terminus); assay: fluorescence polarisation/anisotropy; Ca2+ (1 mM CaCl2)
[2] = biological target: fluorescein-labelled PMCA peptide (Bos taurus (Bovine), UniProt D3K0R6, fluorescein attached to the C-terminal native Lys); assay: as above
Sequence of fluorescein-labelled PMCA peptide (D3K0R6 1086-1105): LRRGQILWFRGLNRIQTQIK

Sequence of fluorescein-labelled CaMKII peptide (Q9UQM7 other isoform, or with tags, fused parts or gaps): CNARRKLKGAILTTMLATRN

B1: His6-tagged human centrin1 (protein)
chain: MASGFKKPSAASTGQKRKVAPKPELTEDQKQEVREAFDLFDVDGSGTIDAKELKVAMRALGFEPRKEEMKKMISEVDREGTGKISFNDFLAVMTQKMSEKDTKEEILKAFRLFDDDETGKISFKNLKRVANELGENLTDEELQEMIDEADRDGDGEVNEEEFLRIMKKTSLY
binding result [1]: no binding
binding result [2]: no binding
